Our source for the Analyte rlus and % Cross-reactivity values is patent US20120122239A1.

Test [1] deals with glycosylated human proBNP (HyTest, Turku, Finland; Catalog No. 8GOB2) (human). The test can be described thus: sandwich CMIA, capture 15F11, analyte 577.4 pM.
The target in test [2] is human pro B-type natriuretic peptide (HyTest, Turku, Finland; Catalog No. 8PRO8) (human). The test can be described thus: sandwich CMIA, capture 15F11, analyte 577.4 pM.
The target of test [3] is human NT-pro B-type natriuretic peptide (HyTest, Turku, Finland; Catalog No. 8NT1) (human). Nature of the test: sandwich CMIA, capture 15F11, analyte 577.4 pM.
Chain of human NT-pro B-type natriuretic peptide (HyTest, Turku, Finland; Catalog No. 8NT1) (human) (chain, as listed by the source): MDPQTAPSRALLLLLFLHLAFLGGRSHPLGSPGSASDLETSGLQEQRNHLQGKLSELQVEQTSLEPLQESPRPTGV
For test [4], the target named is glycosylated human proBNP (HyTest, Turku, Finland; Catalog No. 8GOB2) (human). Nature of the test: sandwich CMIA, capture 15C4, 86.6 pM, against human NT-proBNP.
The target in test [5] is human pro B-type natriuretic peptide (HyTest, Turku, Finland; Catalog No. 8PRO8) (human). The test is described as above.
The target in test [6] is glycosylated human proBNP (HyTest, Turku, Finland; Catalog No. 8GOB2) (human). The test can be described thus: sandwich CMIA, capture 15F11, 288.7 pM, against human NT-proBNP.
For test [7] the target is unchanged. Nature of the test: sandwich CMIA, capture 15C4, analyte 577.4 pM.
Test [8] addresses human pro B-type natriuretic peptide (HyTest, Turku, Finland; Catalog No. 8PRO8) (human). Nature of the test: sandwich CMIA, capture 15C4, analyte 577.4 pM.
Test [9] has as its target human NT-pro B-type natriuretic peptide (HyTest, Turku, Finland; Catalog No. 8NT1) (human). Nature of the test: sandwich CMIA, capture 15C4, analyte 577.4 pM.
Test [10] concerns the target glycosylated human proBNP (HyTest, Turku, Finland; Catalog No. 8GOB2) (human). The test can be described thus: sandwich CMIA, capture 15F11, analyte 288.7 pM.
In test [11] the target is human pro B-type natriuretic peptide (HyTest, Turku, Finland; Catalog No. 8PRO8) (human). Nature of the test: sandwich CMIA, capture 15F11, analyte 288.7 pM.
The target of test [12] is human NT-pro B-type natriuretic peptide (HyTest, Turku, Finland; Catalog No. 8NT1) (human). Nature of the test: sandwich CMIA, capture 15F11, analyte 288.7 pM.

Chain of human pro B-type natriuretic peptide (HyTest, Turku, Finland; Catalog No. 8PRO8) (human) (chain, as listed by the source): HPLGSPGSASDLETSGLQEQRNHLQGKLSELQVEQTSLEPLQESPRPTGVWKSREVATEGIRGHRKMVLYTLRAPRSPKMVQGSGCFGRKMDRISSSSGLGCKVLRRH

As for “anti-human NT-proBNP/anti-human proBNP labeled monoclonal antibody 29D12 (HyTest, Turku, Finland)”, the Analyte rlus in test [1] was 38700 rlus; in test [2] it was 11400 rlus; in [3], 33900 rlus; in [7] it was 1420 rlus; in test [8], 25900 rlus; in test [9], 180000 rlus. Further, the Analyte rlus in test [10] was 16400 rlus; in [11], 6140 rlus; in test [12], 14600 rlus. Besides, the % Cross-reactivity in test [4] was 0.7%; in test [5], 16%; in test [6] it was 113%.
